± gives the uncertainty stated by the source.

The nature of the data set: amyloid nucleation score (Sup35N fusion, yeast selection) (log enrichment); library NNK2; higher = more nucleation; inactive = no reads after selection. In short, it runs like this: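 The nucleation score is the DiMSum log enrichment of output over input reads, centred on the mode score of non-aggregating sequences. Only sequences with 100 or more input reads were scored, using Illumina sequencing of input and output plasmid inserts. Psi-negative yeast expressing Sup35N fused to peptides of 20 random codons were induced 24 hours with 100 μM copper sulfate and grown 7 days at 30°C on medium lacking adenine and uracil.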
Substance TNWQGQRIRYAKDLGGPCGL gave an amyloid nucleation score of 0.506 ± 0.35.

As to YVGSTLAFNNKIGGDYNMKS, the amyloid nucleation score is -0.54 ± 1.1. The figure for LFSYQYCVVRMVLFIRL is -0.588 ± 0.53; for WFFTSS it is -0.526 ± 0.76. On to SCQENICENWFWLLHD, for which the amyloid nucleation score is -0.321 ± 0.45. In turn, LNVHCAGCCANWPLC returned an amyloid nucleation score of 9.041 ± 0.026. For WLIFLTVISISCCDQGVRF the value was 7.401 ± 0.028.

For FLVYMIVVV, the amyloid nucleation score was -0.702 ± 1.1. RCSVGVAWEVGKYVIKIRGF: the amyloid nucleation score is -1.08 ± 0.62. The figure for AQNKNWQSFRMFPVVLAMVG is 0.178 ± 0.77; for GYRSIFLLFFPADHPLHTIY it is -0.064 ± 1.1; for YWWGLENFTYCEDDAVSHKS it is 0.294 ± 0.8. The figure for VVMLVRT is 3.87 ± 0.064; for HIGHSWIGSALDTLAYEGYY it is -0.49 ± 0.76; for RFKDCLIPQWLPGMIKNR it is -0.444 ± 0.48. For GALTQSVLIYRH the value was 2.12 ± 0.13; for VAYVKACRTSGVHQLSTDHV, 1.67 ± 0.34. Turning to RPPPHCSCSSYSWDMYCILN, the amyloid nucleation score amounted to 8.58 ± 0.072.

NNLLYLLLLYVQTSAE returned an amyloid nucleation score of 4.49 ± 0.099. Consider YALWIVMLVP, for which the amyloid nucleation score is -0.104 ± 0.49. The figure for SRSGCHYCAVYTQIVLPRAP is 8.711 ± 0.081. For LNPRNQCERRCFSVSGLKWY the value was -0.899 ± 0.64; for SREYLSRFVTFYLMYFYAKS, -0.516 ± 0.64.

On to IVNLPSYYRASRQEDVVKGR, for which the amyloid nucleation score came to 0.75 ± 0.36.

LNGYATLCYPVILSRIVYGP yielded an amyloid nucleation score of 4.03 ± 0.043. The figure for EFRWYNFLWY is -0.618 ± 1.1; for TEAFKGLSLS it is 0.184 ± 0.49. For TFAVFSYLRFIATNSGNIKA the value was -0.606 ± 0.48; for FRKGNIMELFALCCMISYCF, -0.682 ± 0.49; for LSKRIDSRDMLGSGNHRCLL, -0.655 ± 0.64. For VKFFSSVLSNDGFRSLGVCL the value was 0.13 ± 1.1; for RIYFTPRYLDIDFYWTLNAV, -0.598 ± 0.64. VRLLLYWVAVRWRETDCCCS came in with an amyloid nucleation score of 0.315 ± 0.48. For LTICS the value was -1.03 ± 0.78; for NDSNIRINNFFGNFTFGREL, 7.485 ± 0.041; for CIRMNRISLGNSICWCAPNM, 7.922 ± 0.047.

Regarding MGTPTTEIGALTMGSEPFV, the amyloid nucleation score was 1.24 ± 0.39. The substance FEGVTYSRVV gave an amyloid nucleation score of 0.001 ± 0.54.

Substance LSGRCFFNVLLINCKRTERI showed an amyloid nucleation score of 2.1 ± 0.19. The figure for YFTGSPVVHRLLSYNLFLRF is 5.726 ± 0.039; for SRCGIWPWLRHDKVD it is 0.853 ± 0.18; for ALGHR it is -0.079 ± 0.45. The figure for TVELLGILAHCSFCS is 8.247 ± 0.054; for ISVQATGASESETIPIQTGY it is 2.13 ± 0.11. The figure for GSASSCGCMMWQCKAICPNS is -0.4 ± 0.63; for SRCMILFFRFIVSRYEVKSL it is 1.77 ± 0.12. SWCACSLGSQYGTMSGWLLY displayed an amyloid nucleation score of 0.162 ± 0.37. With LILRGDS, the amyloid nucleation score is -0.913 ± 0.4.

For GIIWT, the amyloid nucleation score is -0.078 ± 0.26. The figure for LKLGFRIQLPLLSYGYPFLW is -1.29 ± 0.39; for RGCSVSTDDSVIRLTIAWQY it is 0.33 ± 0.4; for YLNWCSSSRNYLSMLYWPMV it is -0.148 ± 0.5. The entry for VYMKFMGMMQHFIKLKSRDL is “inactive”.

In the case of TFIFWGTAELVNNNLGLRC, the amyloid nucleation score was -0.479 ± 0.48. Turning to GLRFC, the amyloid nucleation score entry is “inactive”.

Consider WQIRWVYVSIWSQFAQTRGV, for which the amyloid nucleation score was 0.462 ± 0.29. The entry for SISVLYNLRLLCIYNIVVYR is “inactive”; for YYISKKSMMMDEVRCWMTWF it is -0.524 ± 0.27. The figure for CSHITYQMCFILLNTAYFSH is -0.159 ± 1.1; for LGTVRYLS it is 0.399 ± 0.41. The figure for RERLL is -0.114 ± 0.51; for NDGLSILVASNMCLSFAWAW it is 5.109 ± 0.04. MLLLGTTSQDHHMTLGKYAG showed an amyloid nucleation score of 0.808 ± 0.74.

As for ITTFLCSGFCIINAVRNFLS, the amyloid nucleation score is 2.77 ± 0.12. In turn, TLPSPIRYRVNTNNRM yielded an amyloid nucleation score of 0.397 ± 0.54. The figure for LDRFLSMRLFLPYVTNLRNH is -0.431 ± 0.64; for RMFWISNKVSIPGPGLEAGN it is “inactive”; for RSNRYGRDWNGVGTKWLFHD it is -0.395 ± 0.45. As for VCLMLS, the amyloid nucleation score is -0.573 ± 1.1. For IANVWLLQFRKAFEGGLDAG the value was 7.08 ± 0.079. For NGDSGG the value was 1.02 ± 0.16; for SLTVTDIKLGHGRV, 6.2 ± 0.04; for PSDSECISCSCLDRWYRVFE, 2.94 ± 0.12. The figure for YTWSSYD is -1.14 ± 0.36. In turn, IGRRLVDFWDVGPFCSHVII displayed an amyloid nucleation score of -1.48 ± 1.1.

Regarding YTSWDMYIEFIMSLQMYSVG, the amyloid nucleation score is -0.729 ± 1.1. The figure for LTYAYNISYFNWVYCGYWFC is 6.448 ± 0.042; for IACLNKTFLFSCVNIYGLMT it is 5.736 ± 0.037.

Turning to GLLNMCINCGRLFASPGISG, the amyloid nucleation score is -0.285 ± 0.35. YLGDTEQECAF returned an amyloid nucleation score of -1.37 ± 0.3. The figure for TLIGNDDLVVTCTYSYDPTL is -0.145 ± 1.1.

The substance NTFDVVMT returned an amyloid nucleation score of 0.411 ± 0.51. The entry for WLIMT is “inactive”; for LVGFALGSDTLISRY it is -0.221 ± 1.1; for GKMTPLLVNQTVSYCMLSSM it is 6.273 ± 0.035. For PWIAGCNMRTNWFNILNCPV the value was -0.583 ± 0.38. Consider YKGEFFYWFKCVLYYKGNT, for which the amyloid nucleation score result is “inactive”. The figure for LLKLTYTSM is 7.032 ± 0.037; for HFCYSNNRWVSGAFYVSRPT it is 1.78 ± 0.2.

For IFSIKPIYLDLNQRVNSIAE, the amyloid nucleation score result is “inactive”. The figure for GDDWSADVVI is -0.718 ± 0.55; for CQMYWYFWPGVTRFAR it is 8.633 ± 0.03. The figure for WSSKGVCYEVLCRFKVLQ is 2.99 ± 0.084; for KFFDRYMFTRGLHT it is 7.819 ± 0.051; for FRLHLKEFDGVPRWCQYTF it is “inactive”. For ECVRCC the value was -1.11 ± 0.76. On to LIGCLEQG, for which the amyloid nucleation score was -0.156 ± 0.56. RKVRCRYSMT displayed an amyloid nucleation score of 0.142 ± 0.6. For SGAYSDGWYRQHFMVQL the value was “inactive”; for HVTRQLCPLMSFILGR, 0.565 ± 0.49; for AFASYIKNDPPGEVPMAEL, 0.258 ± 0.24. For VPSRS the value was 0.172 ± 0.65; for YIWRLLLLRGCTVNFMSCNM, 5.62 ± 0.067.

Regarding VNKILQEYMACRRNLQTQMW, the amyloid nucleation score was -0.215 ± 0.3. ERGQGKHRNEGVHYNRWCGC gave an amyloid nucleation score of 2.15 ± 0.17. For SIFMYMYKSFFMGNYINGGM the value was 1.03 ± 0.27; for CDKDMRILHMYGLEASEGVY, 0.526 ± 0.26. The figure for IRLARISWRSRHYSTHSGVS is -0.076 ± 0.31; for HTWHLDRSLNLSMSLEPMLL it is 0.233 ± 0.4. The figure for VWWGSMHAVC is 0.652 ± 0.31. FMDWKLYSDPWAKF displayed an amyloid nucleation score of -0.639 ± 0.37.

Take FTFYR: the amyloid nucleation score was determined as 1.08 ± 0.41.

Take YTFWNVLC: the amyloid nucleation score is 3.59 ± 0.084.

For the substance VDVVFTSSSTSLCSLSWSGV, the amyloid nucleation score came out at 4.79 ± 0.099. The entry for AYYYTVLYYSFNMFRFVYTW is “inactive”. In turn, WLKNKLMLVLFTESLPNRSP showed an amyloid nucleation score of -1.02 ± 0.61. For KTMWLLWINGLHMSSHFRSK the value was -0.006 ± 0.22; for FMGRMLVIHL, 0.277 ± 0.41; for LHGSGMENALSVPDMEQFPA, -0.159 ± 0.63. Regarding RFTNSESRNYRA, the amyloid nucleation score was 4.24 ± 0.069. Take YGLWIKS: the amyloid nucleation score is -0.127 ± 1.1. The figure for QSRCGYMGNRH is 0.166 ± 0.76; for MASSFQFSDTGSELTSREAR it is -0.237 ± 0.79. For AVYFYRALDVVMCAFVRKGE the value was 6.01 ± 0.068; for PTCMLCA, 0.868 ± 0.44. The figure for NARFSFKTLRYGGVLRKYPL is -0.363 ± 1.1. The substance KVFRSVGMFVCP showed an amyloid nucleation score of 1 ± 0.29. For RIISHDSCRVIFGKFRVDVW the value was 1.23 ± 0.57; for TYGVVK, -0.047 ± 0.17. For the substance WGHRVDCIFKSNLSA, the amyloid nucleation score was -0.878 ± 0.31. As to YGVYGHFKTLGNLTNRDVVS, the amyloid nucleation score was -1.36 ± 0.75. For VIFAHGVFGECWFVYSLVFS the value was -0.784 ± 0.76. For DYNKLVAWALCLCFFRFRRN the value was 0.762 ± 0.81; for VKPHFRLGGNQNRPIPCSVS, 0.318 ± 0.45; for RYLVLVLLGHINCARYYTLN, -0.114 ± 1.1. For SLHFCQTVFFYMQILSMLAC the value was “inactive”. Turning to MILHCGASKGIPFLFGKDFL, the amyloid nucleation score is -0.208 ± 0.16. For CFKMIFDQGSPKMRMHHIGV the value was 0.234 ± 0.54; for NSIYLCLSAGRFDSMKVNSE, 4.22 ± 0.076. Regarding TYLFYWSLGQRCMIF, the amyloid nucleation score result is “inactive”. The substance RVSGNCIYTKWCVFPVGNLL had an amyloid nucleation score of -1.12 ± 0.76.

Source of the values: the supplement of paper PMC12042874.
